The target of experiment [1] is T1, monkey EGFR on CHO-S-fasEGFR cells (monkey (crab-eating macaque; Macaca …, UniProt P55245 25-645). Kind of experiment: flow cytometry on CHO-S-fasEGFR cells. On the technique in general: A flow cytometer gives signals particle by particle.
The target in experiment [2] is T2, human EGFR on CHO-S-hEGFR cells (human, UniProt P00533 25-645). Kind of experiment: flow cytometry on CHO-S-hEGFR cells.
The target in experiment [3] is T3, His-tagged monkey EGFR protein (monkey (crab-eating macaque; Macaca …, UniProt A0A2K5WK39 25-645).
T3 construct: also called fasEGFR-His; not shown: His tag
Kind of experiment: SPR (Biacore 8K), antibody on Protein A chip. For orientation: SPR reads the build-up and loss of mass on a sensor chip optically.

The target of experiment [4] is T4, His-tagged human EGFR protein (human, UniProt P00533 25-645).
T4 construct: Bought protein; also called hEGFR-His; not shown: His tag
Kind of experiment: SPR (Biacore 8K), antibody on Protein A chip.

For experiment [5], the target named is T5, His-tagged human MET protein (human, UniProt P08581 25-932).
T5 construct: Bought protein; also called hMET-His; not shown: His tag
Kind of experiment: SPR (Biacore 8K), Protein A chip.

The target of experiment [6] is T3, His-tagged monkey EGFR protein. Kind of experiment: SPR (Biacore 8K), Protein A chip.
The target is the same in experiment [7]. Kind of experiment: SPR (Biacore 8K), antibody on Protein A chip. The source holds these as a separate data set.
The target of experiment [8] is T2, human EGFR on CHO-S-hEGFR cells. Kind of experiment: flow cytometry on CHO-S-hEGFR cells. The source holds these as a separate data set.
Experiment [9] concerns the target T1, monkey EGFR on CHO-S-fasEGFR cells. Kind of experiment: flow cytometry on CHO-S-fasEGFR cells. This is another data set of the same source.
The target of experiment [10] is T4, His-tagged human EGFR protein. Kind of experiment: SPR (Biacore 8K), Protein A chip.
Experiment [11] has the same target. Kind of experiment: SPR (Biacore 8K), antibody on Protein A chip. The source holds these as a separate data set.
The target of experiment [12] is T5, His-tagged human MET protein. Kind of experiment: SPR (Biacore 8K), antibody on Protein A chip.
Experiment [13] deals with monkey MET on fasMET-NIH3T3 cells (monkey (Macaca fascicularis)). Kind of experiment: flow cytometry on fasMET-NIH3T3 cells.
The target of experiment [14] is human MET on hMET-NIH3T3 cells (human, UniProt P08581 25-1390). Kind of experiment: flow cytometry on hMET-NIH3T3 cells.

Like-named read-outs stand apart in the source and are kept apart here.

T5 sequence (P08581 25-932 limits assumed): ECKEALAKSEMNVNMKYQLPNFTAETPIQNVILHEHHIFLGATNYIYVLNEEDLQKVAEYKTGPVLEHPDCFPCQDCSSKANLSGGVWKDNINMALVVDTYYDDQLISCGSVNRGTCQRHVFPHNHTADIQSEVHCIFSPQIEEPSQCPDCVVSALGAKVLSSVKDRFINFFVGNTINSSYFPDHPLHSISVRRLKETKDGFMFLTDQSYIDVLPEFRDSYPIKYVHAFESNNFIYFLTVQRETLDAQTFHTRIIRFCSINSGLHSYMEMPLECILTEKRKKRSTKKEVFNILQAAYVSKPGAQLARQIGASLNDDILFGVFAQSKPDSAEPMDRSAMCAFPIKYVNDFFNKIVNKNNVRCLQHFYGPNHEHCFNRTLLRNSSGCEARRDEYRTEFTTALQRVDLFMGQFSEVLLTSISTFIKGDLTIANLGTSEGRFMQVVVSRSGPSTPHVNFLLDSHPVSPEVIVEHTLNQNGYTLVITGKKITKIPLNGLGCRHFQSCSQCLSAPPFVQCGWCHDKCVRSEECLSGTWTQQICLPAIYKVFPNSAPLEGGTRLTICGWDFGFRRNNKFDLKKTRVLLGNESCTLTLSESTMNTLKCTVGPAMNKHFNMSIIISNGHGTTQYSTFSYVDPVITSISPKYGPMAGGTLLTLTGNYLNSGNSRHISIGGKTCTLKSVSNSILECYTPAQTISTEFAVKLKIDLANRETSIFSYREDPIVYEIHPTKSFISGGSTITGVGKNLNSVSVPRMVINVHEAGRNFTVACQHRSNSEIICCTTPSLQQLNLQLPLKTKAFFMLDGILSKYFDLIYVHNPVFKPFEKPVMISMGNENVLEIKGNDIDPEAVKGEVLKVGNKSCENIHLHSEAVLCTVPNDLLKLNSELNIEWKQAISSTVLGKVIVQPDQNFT
Chain of monkey MET on fasMET-NIH3T3 cells (monkey (Macaca fascicularis)) (chain, as listed by the source limits assumed): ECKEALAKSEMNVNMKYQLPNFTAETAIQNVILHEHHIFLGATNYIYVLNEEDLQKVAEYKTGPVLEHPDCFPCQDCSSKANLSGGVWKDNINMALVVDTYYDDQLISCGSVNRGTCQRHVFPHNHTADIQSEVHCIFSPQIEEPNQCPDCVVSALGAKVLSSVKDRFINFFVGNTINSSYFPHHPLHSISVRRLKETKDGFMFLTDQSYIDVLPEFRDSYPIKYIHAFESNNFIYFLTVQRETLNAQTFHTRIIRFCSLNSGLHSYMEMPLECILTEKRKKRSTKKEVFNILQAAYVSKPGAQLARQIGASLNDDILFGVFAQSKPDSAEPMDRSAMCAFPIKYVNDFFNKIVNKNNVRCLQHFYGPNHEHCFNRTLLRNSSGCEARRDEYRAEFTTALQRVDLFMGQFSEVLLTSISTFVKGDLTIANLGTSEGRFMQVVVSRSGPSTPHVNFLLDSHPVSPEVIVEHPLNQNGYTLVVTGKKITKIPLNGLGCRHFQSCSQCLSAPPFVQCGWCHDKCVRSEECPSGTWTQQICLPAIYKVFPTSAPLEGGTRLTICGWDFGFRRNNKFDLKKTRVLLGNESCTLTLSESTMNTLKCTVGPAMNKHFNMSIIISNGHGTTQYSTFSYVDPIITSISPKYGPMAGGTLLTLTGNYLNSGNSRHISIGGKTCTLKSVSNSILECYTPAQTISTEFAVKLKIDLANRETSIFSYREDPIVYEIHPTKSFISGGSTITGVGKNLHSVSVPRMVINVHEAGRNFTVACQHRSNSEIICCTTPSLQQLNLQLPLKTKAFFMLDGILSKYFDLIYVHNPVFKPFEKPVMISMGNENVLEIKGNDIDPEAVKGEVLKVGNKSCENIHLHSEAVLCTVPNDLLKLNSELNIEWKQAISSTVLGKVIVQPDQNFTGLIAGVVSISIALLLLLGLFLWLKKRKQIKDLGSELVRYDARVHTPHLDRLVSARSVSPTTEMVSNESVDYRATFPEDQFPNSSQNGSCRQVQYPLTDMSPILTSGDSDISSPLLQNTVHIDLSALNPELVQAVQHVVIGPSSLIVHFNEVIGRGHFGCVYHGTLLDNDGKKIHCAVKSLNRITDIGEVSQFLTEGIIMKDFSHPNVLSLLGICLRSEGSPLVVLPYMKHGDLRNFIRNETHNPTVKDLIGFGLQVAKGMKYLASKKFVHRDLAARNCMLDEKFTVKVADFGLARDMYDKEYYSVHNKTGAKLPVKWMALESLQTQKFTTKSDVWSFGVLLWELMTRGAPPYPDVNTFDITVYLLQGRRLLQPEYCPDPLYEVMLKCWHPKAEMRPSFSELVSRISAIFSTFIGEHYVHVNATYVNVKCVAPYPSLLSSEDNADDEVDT
Chain of human MET on hMET-NIH3T3 cells (P08581 25-1390 limits assumed): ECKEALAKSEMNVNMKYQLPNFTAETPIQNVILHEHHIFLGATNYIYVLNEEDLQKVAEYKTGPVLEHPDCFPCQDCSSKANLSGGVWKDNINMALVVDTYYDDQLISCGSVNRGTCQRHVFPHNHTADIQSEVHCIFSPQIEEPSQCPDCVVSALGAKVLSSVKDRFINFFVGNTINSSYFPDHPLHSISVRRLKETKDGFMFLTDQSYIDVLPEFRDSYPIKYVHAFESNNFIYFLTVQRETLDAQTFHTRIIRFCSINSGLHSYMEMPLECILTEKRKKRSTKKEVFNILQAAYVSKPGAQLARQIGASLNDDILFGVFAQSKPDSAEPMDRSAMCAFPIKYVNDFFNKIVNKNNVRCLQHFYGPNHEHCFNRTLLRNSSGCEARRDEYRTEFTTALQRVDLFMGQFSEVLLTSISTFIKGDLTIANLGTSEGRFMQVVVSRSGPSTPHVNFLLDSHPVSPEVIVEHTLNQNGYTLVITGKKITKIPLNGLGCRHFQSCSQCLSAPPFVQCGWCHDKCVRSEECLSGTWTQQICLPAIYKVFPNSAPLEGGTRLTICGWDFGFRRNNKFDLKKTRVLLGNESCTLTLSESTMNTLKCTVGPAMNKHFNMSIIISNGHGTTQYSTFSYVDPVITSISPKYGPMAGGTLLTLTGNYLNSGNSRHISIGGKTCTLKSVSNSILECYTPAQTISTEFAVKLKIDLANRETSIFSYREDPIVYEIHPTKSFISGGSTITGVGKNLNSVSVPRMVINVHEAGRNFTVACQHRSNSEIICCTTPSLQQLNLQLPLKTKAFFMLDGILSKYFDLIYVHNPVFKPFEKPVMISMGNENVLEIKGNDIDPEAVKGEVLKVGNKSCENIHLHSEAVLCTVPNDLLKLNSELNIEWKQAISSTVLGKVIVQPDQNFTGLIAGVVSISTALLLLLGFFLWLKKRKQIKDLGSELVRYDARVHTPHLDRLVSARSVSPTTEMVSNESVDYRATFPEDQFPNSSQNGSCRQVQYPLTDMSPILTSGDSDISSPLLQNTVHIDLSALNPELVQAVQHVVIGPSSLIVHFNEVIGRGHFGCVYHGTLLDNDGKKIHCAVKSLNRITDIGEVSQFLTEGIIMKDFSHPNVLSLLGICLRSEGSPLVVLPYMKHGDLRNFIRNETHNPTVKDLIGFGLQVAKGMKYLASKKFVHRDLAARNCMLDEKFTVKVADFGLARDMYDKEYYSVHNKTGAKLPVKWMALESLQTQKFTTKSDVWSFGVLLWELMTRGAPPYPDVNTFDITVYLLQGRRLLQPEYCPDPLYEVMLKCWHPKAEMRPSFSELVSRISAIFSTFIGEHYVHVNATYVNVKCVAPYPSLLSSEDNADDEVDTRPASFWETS

B1: E-9A6 (antibody, V domains shown)
VH: EVQLQQSGPGLVKPSQTLSLTCTVSGGSISSGDYYWNWIRQPPGKGLEWIGYIYYSGSTYYNPSLKSRVTISVDTSKNQFSLKLSSVTAADTAVYYCAREGVYTIMVDYWGQGTLVTVSS
VL: not shown
A word on the Kd: it is a measure of binding affinity in units of concentration. The koff is the first-order rate constant of dissociation. As a reminder, the kon is the second-order rate constant of association. Consider B1, for which the results for the “Percentage of Positive Cells” value in [1] and in experiment [2] were 55.4% and 56.9%, respectively. In addition, the Kd in experiment [3] was 12.6 nM; in experiment [4] it was 9.44 nM. Besides, the results for the koff in experiment [3] and in experiment [4] were 0.00173 s⁻¹ and 0.00176 s⁻¹, respectively. In addition, the figures for the kon in experiment [3] and in experiment [4] were 138000 M⁻¹ s⁻¹ and 186000 M⁻¹ s⁻¹, respectively.

B2: E-9D2 (antibody, V domains shown)
VH: EVQLQESGPGLVKPSQTLSLTCTVSGGSISSGDYYWSWIRQPPGKGLEWIGYIYYSGSTYYNPSLKSRVTISVDTSKNQFSLRLSSVTAADTAVYYCARDLVYYYALDVWGQGTTVTVSS
VL: not shown
B2: the “Percentage of Positive Cells” value in experiment [1] amounted to 45.9%. The “Percentage of Positive Cells” value in [2] was found to be 38.7%. Further, in experiment [3], the Kd amounted to 99.8 nM, the koff was 0.0203 s⁻¹ and the kon stood at 203000 M⁻¹ s⁻¹. For the same molecule, in [4], binding was characterised by a dissociation constant (Kd) of 60.3 nM, the koff was determined as 0.0152 s⁻¹ and the kon is 252000 M⁻¹ s⁻¹.

B3: E-9H2 (antibody, V domains shown)
VH: EVQLVESGPGLVKPSQTLSLTCTVSGDSISSGDYYWSWIRQPPGKGLEWIGYIYYSGSTYYNPSLKSRVIISLDTSKNQFSLKLISVTAADTAVYYCARVGVYSTSRDYWGQGTLVTVSS
VL: not shown
Consider B3, for which the “Percentage of Positive Cells” value in experiment [1] came to 41.5%. In addition, the “Percentage of Positive Cells” value in experiment [2] is 44.3%. Also, in experiment [3], the Kd was 152 nM, the dissociation rate constant (koff) was found to be 0.0177 s⁻¹ and the kon turned out to be 117000 M⁻¹ s⁻¹. In experiment [4], the Kd turned out to be 98.3 nM, the koff is 0.0151 s⁻¹ and the kon was found to be 154000 M⁻¹ s⁻¹.

B4: E-6C4 (antibody, V domains shown)
VH: QVQLQQWGPGLVKPSQTLSLTCTVSGGSINSGDYYWSWIRQPPGKGLESIGYIYYSGSTYYNPSLKSRVTISADTSKNQFSLKLTSVTAADTAVYYCARERVYSSSLDYWGQGTLVTVSS
VL: not shown
B4: the binding result in experiment [5] is on record as “no binding (tested: antigen up to 400 nM)”. For the same molecule, the Kd came to 158 nM in experiment [6] and 90.3 nM in [7]. The results for the “Percentage of Positive Cells” value in experiment [8] and in experiment [9] were 26.4% and 25.4%, respectively.

B5: E-9F3 (antibody, V domains shown)
VH: QVQLQESGPGLVKPSQTLSLTCTVSGGSINSGDYYWSWIRQPPGKGLEWIGHIYYSGITYYNPSLKSRVTISADTSKNQFSLKLTSVTVADTAVYYCDRAGVYHDMDVWGQGTTVTVSS
VL: not shown
With B5, the “Percentage of Positive Cells” value in [1] worked out at 53.7%; in experiment [2], 53.1%. In addition, the Kd in experiment [3] was 39.9 nM; in experiment [4], 27.2 nM. The koff came out at 0.0019 s⁻¹ in [3] and 0.00177 s⁻¹ in experiment [4]. Besides, the kon turned out to be 47600 M⁻¹ s⁻¹ in experiment [3] and 64900 M⁻¹ s⁻¹ in experiment [4].

B6: E-2B7 (antibody, V domains shown)
VH: EVQLQQWGPGLVKPSQTLSLTCTVSGGSINSGDYYWSWIRQPPGKGLEWIGYIYYSGSTYYNPSLKSRVTISLDTSKNQLSLKLSSVTAADTAVYYCARNNDFGDYLYFDNWGQGTLVTVSS
VL: not shown
Consider B6, for which the binding result in experiment [5] is recorded as “no binding (tested: antigen up to 400 nM)”. In addition, the Kd was determined as 6.49 nM in experiment [6], 4.22 nM in experiment [10], 5.32 nM in [7] and 4.69 nM in experiment [11]. Besides, the koff in [6] was found to be 0.000296 s⁻¹; in experiment [10] it was 0.000301 s⁻¹; in [7], 0.000342 s⁻¹; in experiment [11], 0.000286 s⁻¹. In addition, the kon in experiment [6] came out at 45600 M⁻¹ s⁻¹; in experiment [10] it was 71500 M⁻¹ s⁻¹; in [7] it was 64300 M⁻¹ s⁻¹; in experiment [11] it was 61000 M⁻¹ s⁻¹. Besides, the “Percentage of Positive Cells” value is 26.1% in [8] and 28.6% in experiment [9].

B7: E-2B7-M-2F11 (bispecific antibody)
VH 1: EVQLQQWGPGLVKPSQTLSLTCTVSGGSINSGDYYWSWIRQPPGKGLEWIGYIYYSGSTYYNPSLKSRVTISLDTSKNQLSLKLSSVTAADTAVYYCARNNDFGDYLYFDNWGQGTLVTVSS
VH 2: EVQLVESGPGLVKPSETLSLTCTVSGGSISSNYWSWIRQPPGKGLEWIGYIYHSGSTNYNPSLKSRVTISVDTSKNQFSLKLSSVTAADTAVYFCARGPVSIFGVVKYIDLWGRGTLVTVSS
light: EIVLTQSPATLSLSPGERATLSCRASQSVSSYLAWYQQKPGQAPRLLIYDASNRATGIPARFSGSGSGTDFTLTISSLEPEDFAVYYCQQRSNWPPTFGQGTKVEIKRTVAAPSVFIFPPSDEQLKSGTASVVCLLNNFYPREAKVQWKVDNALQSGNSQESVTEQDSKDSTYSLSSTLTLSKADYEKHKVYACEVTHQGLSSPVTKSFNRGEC
notes: 1+1 IgG1 bispecific with knobs-into-holes and a common light chain: first VH is the EGFR arm (E-2B7), second VH the MET arm (M-2F11); also called anti-EGFR/MET bispecific antibody E-2B7-M-2F11
For the molecule B7, in experiment [5], the Kd is 28.1 nM, the koff worked out at 0.00109 s⁻¹ and the kon was 38700 M⁻¹ s⁻¹. In experiment [6], this molecule registered a Kd of 11.8 nM, a koff of 0.000522 s⁻¹ and a kon of 44300 M⁻¹ s⁻¹. In experiment [10], this molecule gave a Kd of 6.82 nM, a koff of 0.000503 s⁻¹ and an on-rate constant (kon) of 73800 M⁻¹ s⁻¹.

B8: E-6C4-M-2F11 (bispecific antibody)
VH 1: QVQLQQWGPGLVKPSQTLSLTCTVSGGSINSGDYYWSWIRQPPGKGLESIGYIYYSGSTYYNPSLKSRVTISADTSKNQFSLKLTSVTAADTAVYYCARERVYSSSLDYWGQGTLVTVSS
VH 2: EVQLVESGPGLVKPSETLSLTCTVSGGSISSNYWSWIRQPPGKGLEWIGYIYHSGSTNYNPSLKSRVTISVDTSKNQFSLKLSSVTAADTAVYFCARGPVSIFGVVKYIDLWGRGTLVTVSS
light: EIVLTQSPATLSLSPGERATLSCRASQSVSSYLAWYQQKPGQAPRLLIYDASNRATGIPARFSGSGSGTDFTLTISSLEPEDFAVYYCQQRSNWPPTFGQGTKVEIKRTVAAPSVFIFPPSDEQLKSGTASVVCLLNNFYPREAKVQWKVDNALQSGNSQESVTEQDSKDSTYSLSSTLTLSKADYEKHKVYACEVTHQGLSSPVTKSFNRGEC
notes: also called anti-EGFR/MET bispecific antibody E-6C4-M-2F11
Regarding B8, the Kd in experiment [5] came out at 50.5 nM; in [6], 115 nM; in experiment [10], 70.7 nM. Further, the koff in experiment [5] worked out at 0.00187 s⁻¹; in experiment [6], 0.0198 s⁻¹; in experiment [10] it was 0.0215 s⁻¹. For the same molecule, the kon in experiment [5] worked out at 37000 M⁻¹ s⁻¹; in [6], 172000 M⁻¹ s⁻¹; in [10], 304000 M⁻¹ s⁻¹.

B9: E-6C4-M-2G10 (bispecific antibody)
VH 1: QVQLQQWGPGLVKPSQTLSLTCTVSGGSINSGDYYWSWIRQPPGKGLESIGYIYYSGSTYYNPSLKSRVTISADTSKNQFSLKLTSVTAADTAVYYCARERVYSSSLDYWGQGTLVTVSS
VH 2: EVQLVESGGGVVQPGRSLRLSCAASGFTFNICGIHWVRQAPGKGLEWVATISHDANDKYYADSVKGRFTISRDNSKNTLYLQMNSLRAEDTAVYYCARDGNRGYDGYFDYWGQGTLVTVSS
light: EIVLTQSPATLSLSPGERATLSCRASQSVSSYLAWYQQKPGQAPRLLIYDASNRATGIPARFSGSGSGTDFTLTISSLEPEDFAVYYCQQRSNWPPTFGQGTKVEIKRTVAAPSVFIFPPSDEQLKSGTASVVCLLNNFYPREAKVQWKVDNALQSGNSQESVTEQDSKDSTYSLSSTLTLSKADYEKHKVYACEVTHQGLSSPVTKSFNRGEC
notes: also called anti-EGFR/MET bispecific antibody E-6C4-M-2G10
Regarding B9, the figures for the Kd in experiment [5], in [6] and in experiment [10] were 41.7 nM, 80.9 nM and 53.1 nM, respectively. Moreover, the koff in experiment [5] came out at 0.00165 s⁻¹; in experiment [6] it was 0.011 s⁻¹; in [10], 0.0174 s⁻¹. Further, the kon came out at 39500 M⁻¹ s⁻¹ in experiment [5], 136000 M⁻¹ s⁻¹ in experiment [6] and 328000 M⁻¹ s⁻¹ in [10].

B10: M-8D9 (antibody, V domains shown)
VH: QVQLQESGPGLVKPSETLSLTCTVSGGSISGHYWSWIRQSPGKGLEWIGYITYSGSTNYNPSLKSRVTISVDTSKNQFSLKLSSVTAADTAVYYCGTIAVAGRVYYYGVDVWGRGTTVTVSS
VL: not shown
On to B10, for which, in [12], the Kd worked out at 18.6 nM, the koff was determined as 0.000505 s⁻¹ and the kon was 27100 M⁻¹ s⁻¹. Moreover, the “Percentage of Positive Cells” value in experiment [13] was found to be 65.3%. Besides, the “Percentage of Positive Cells” value in experiment [14] worked out at 99.8%.

B11: E-3A8 (antibody, V domains shown)
VH: EVQLVESGGGLVQPGGSLRLSCAVSGFIFSSYEMNWVRQAPGKGLEWVSYISSSGSTIYYADSVKGRFTISRDNAMNSLNLQMNSLRDEDTAVYYCVRVWYSSGWSGCFAYWGQGSLVTVSS
VL: not shown
In experiment [7], B11 had a dissociation constant Kd of 21.3 nM, a koff of 0.00104 s⁻¹ and a kon of 48700 M⁻¹ s⁻¹. In [11], this molecule gave a Kd of 23.2 nM, a koff of 0.00101 s⁻¹ and a kon of 43500 M⁻¹ s⁻¹. Further, the “Percentage of Positive Cells” value in [8] was 31.2%. Besides, in experiment [9], the “Percentage of Positive Cells” value was 23.8%.

B12: E-3D8 (antibody, V domains shown)
VH: EVQLVESGGGLVQPGGSLRLSCAASGFIFSSYEMNWVRQAPGKGLEWVSYISSSGSTIYYADSVKGRFTISRDNAKNSLYLQMNSLRADDTAIYYCARVWYSSGWSGCFAYWGQGTLVTVSS
VL: not shown
On to B12, for which the Kd amounted to 34 nM in [7] and 39 nM in [11]. The koff in [7] and in experiment [11] was 0.00132 s⁻¹ throughout. The kon in experiment [7] was 38700 M⁻¹ s⁻¹; in experiment [11], 33900 M⁻¹ s⁻¹. Further, the “Percentage of Positive Cells” value in [8] amounted to 28.8%; in [9] it was 24.1%.

For the origin of these results see patent publication US20250382373A1 (BIOCYTOGEN PHARMACEUTICALS BEIJING, published 2025).
